A short description of the experiment: analytical assay of enzyme activity with compounds of the formula I as substrate. The experiment is classed as biochemical. As to the method: The configuration of the resulting 8-chloro-6-hydroxyoctanoic acid alkyl esters is determined by the enzyme employed. Thus, reduction of 8-chloro-6-oxooctanoic acid alkyl esters using alcohol dehydrogenase from Thermoanaeorubium brokii results in enantiopure (R)-8-chloro-6-hydroxyoctanoic acid alkyl esters. In the case of reduction using Lactobacillus brevis alcohol dehydrogenase, there is enantioselective formation of (S)-8-chloro-6-hydroxyoctanoic acid alkyl esters (ee>65%).

B1: LKADH: Lactobacillus kefir ADH, commercially available (protein, UniProt Q6WVP7 1-252, looked up)
NADP-dependent (R)-specific …: MTDRLKGKVAIVTGGTLGIGLAIADKFVEEGAKVVITGRHADVGEKAAKSIGGTDVIRFVQHDASDEAGWTKLFDTTEEAFGPVTTVVNNAGIAVSKSVEDTTTEEWRKLLSVNLDGVFFGTRLGIQRMKNKGLGASIINMSSIEGFVGDPTLGAYNASKGAVRIMSKSAALDCALKDYDVRVNTVHPGYIKTPLVDDLEGAEEMMSQRTKTPMGHIGEPNDIAWICVYLASDESKFATGAEFVVDGGYTAQ
On to B1, for which the Activity (Standard acetophenone, cofactor NADP(H), 50 mM Kpi, 0.1 mM MgCl2, pH 7.0, iso-propanol 200 mM) was 10%.

B2: TBADH: Thermoanaerobium brokii ADH, commercially available (protein, UniProt P14941 1-352, looked up)
NADP-dependent isopropanol …: MKGFAMLSIGKVGWIEKEKPAPGPFDAIVRPLAVAPCTSDIHTVFEGAIGERHNMILGHEAVGEVVEVGSEVKDFKPGDRVVVPAITPDWRTSEVQRGYHQHSGGMLAGWKFSNVKDGVFGEFFHVNDADMNLAHLPKEIPLEAAVMIPDMMTTGFHGAELADIELGATVAVLGIGPVGLMAVAGAKLRGAGRIIAVGSRPVCVDAAKYYGATDIVNYKDGPIESQIMNLTEGKGVDAAIIAGGNADIMATAVKIVKPGGTIANVNYFGEGEVLPVPRLEWGCGMAHKTIKGGLCPGGRLRMERLIDLVFYKRVDPSKLVTHVFRGFDNIEKAFMLMKDKPKDLIKPVVILA
For B2, the Activity (Standard 2-butanone, cofactor NADP(H), 50 mM Tris, 1 mM DTT, pH 7.8, HCO2Na, FDH, 37° C.) was found to be 6%.

B3: Y-ADH: yeast alcohol dehydrogenase, commercially available (protein, UniProt P00330 2-348, looked up)
Alcohol dehydrogenase 1: SIPETQKGVIFYESHGKLEYKDIPVPKPKANELLINVKYSGVCHTDLHAWHGDWPLPVKLPLVGGHEGAGVVVGMGENVKGWKIGDYAGIKWLNGSCMACEYCELGNESNCPHADLSGYTHDGSFQQYATADAVQAAHIPQGTDLAQVAPILCAGITVYKALKSANLMAGHWVAISGAAGGLGSLAVQYAKAMGYRVLGIDGGEGKEELFRSIGGEVFIDFTKEKDIVGAVLKATDGGAHGVINVSVSEAAIEASTRYVRANGTTVLVGMPAGAKCCSDVFNQVVKSISIVGSYVGNRADTREALDFFARGLVKSPIKVVGLSTLPEIYEKMEKGQIVGRYVVDTSK
Take B3: the Activity (Standard 2-butanone, cofactor NAD(H), 100 mM TEA, pH 7.0) is 20%.

The values above are taken from patent publication US20050032180A1, “Method for the production of (r)-and (s)-8-chloro-6-hydroxy-octanic acid alkyl esters by enzymatic reduction” (priority 2001, published 2005).
